Assays:
[1] = Peptide content (assay) of lyophilized drug product by UPLC-UV at 220 nm, conventional method (peptide as reference standard); format: physicochemical; details: conventional method (peptide as RS)
Experimental: The purity including individual related substances and the assay of a DP-5P (5 peptides, SEQ ID NOs: 1-5) and DP-7P (7 peptides, SEQ ID NOs: 6-12) mixture were determined by reversed phase rapid HPLC (UPLC) using a mobile phase gradient of acetonitrile and water and UV detection at λ=220 nm.
• Column: RP C18, e.g. Waters Acquity, BEH 130 PST (1.7 μm, 150×2.1 mm) • Sample matrix Eluent A : Eluent B=85:15 (v/v). • Sample concentration 100 μg/mL net peptide (of each drug substance mixture), duplicate • Injection volume: 5 μL • Column temperature: 65° C. • Sample temperature: 5° C. • Detection: UV (λ=220 nm) • Flow rate: 0.3 mL/min • Eluent A: 0.05%v/v TFA and 1%v/v Acetonitrile (ACN) in water • Eluent B: 0.05%v/v TFA in ACN
The relative retention times (RRTs) assigned to peptides and related substances both in a DP-5P (SEQ ID NO: 1-5) and DP-7P (SEQ ID NO: 6-12) mixture was calculated with reference to the retention time of the peptide eluting in the middle (FIG. 1 and FIG. 2). That retention time was used as reference as the main peak of this drug substance was detected approx. in the center of the chromatogram. The related substances were determined by area normalization. The individual related substances were reported≥0.10%a/a. The total related substances were calculated as the sum of all individual related substances equal to or greater than a disregard limit of 0.0500%a/a. The purity was calculated as the difference between total related substances and 100%.
The assay of each of the peptides was calculated against a reference standard solution containing either five peptides (DP-5P) or seven peptides (DP-7P) and was expressed in percent and in mg net peptide/vial. For this reference method, the absorption ratio between the reference substance and the analyte is 1, because the reference substance is the analyte itself.
At T=0 months (TOM) the peptide content was measured using the conventional method of Example 2. From T=48 months (T48M) onwards the peptide content was measured with the conventional method of Example 2 and the method according to the invention of Example 3.

[2] = Peptide content (assay) of lyophilized drug product by UPLC-UV at 220 nm, method according to the invention (USP reserpine reference standard, RRF); format: physicochemical; details: method according to the invention (USP RS)
Source text: The UPLC method similar to Example 1 was used for the quantification of analytes (i.e. the individual peptides) in mixtures DP-5P (SEQ ID NO: 1-5) and DP-7P (SEQ ID NO: 6-12) and for the determination of content uniformity of mixtures DP-5P and DP-7P (lyophilized product). The method is based on the use of an external reference standard. The relative response factor (ratio of molar extinction coefficients, RRF) against this external reference standard has been established for each peptide. The purity, individual related substances, and the assay of DP-5P and DP-7P were determined by reversed phase rapid HPLC (UPLC) using a mobile phase gradient of ACN/IPA and water and UV detection at λ220 nm.
The following lyophilized peptide compositions were used: DP-5P comprising peptides represented herein by SEQ ID NO: 1-5 admixed at equal net weights of 0.40 mg of each peptide per vial (total amount of protein per vial being 2.00 mg) and 0.56 mg TFA per vial; and DP-7P comprising peptides represented herein by SEQ ID NO: 6-12 admixed at equal net weights of 0.40 mg of each peptide per vial (total amount of protein per vial being 2.80 mg) and 0.96 mg TFA per vial. The following chemicals were used: Acetonitrile, (Biosolve, 01204102); UPLC water, (Type 1, milli-Q); trifluoroacetic acid, (Chem Lab, CLoo.2094.0001), 2-propanol, (UPLC/MS grade, Biosolve, 16264102); Reserpine, (USP, Sigma Aldrich, 1601000). The following equipment was used: QuanRecovery vials, (Waters, 186009186); UPLC pump equipped with a gradient system, autosampler, and UV detection (Waters Acquity or equivalent) and mixer volume 425 μL.
• Mobile phase A: 0.1% (v/v) TFA in water • Mobile phase B: 0.1% (v/v) TFA in 70/30 ACN/IPA • Diluent A: 0.05% (v/v) TFA in water • Diluent B: 0.05% (v/v) TFA in ACN • Blank solution: 80/20 (v/v) diluent A/diluent B • Purge solvent: 80/20 (v/v) water/ACN • Needle wash: 0.05% (v/v) TFA in 80/20 (v/v) water/ACN
5.00 mg Reserpine reference material was accurately weighed and added into a 50 mL volumetric flask. 40.0 mL of blank solution was added, by means of a volumetric pipette. The solution was stirred for 10 min, by means of a magnetic stirrer, until fully dissolved. The solution was diluted to volume with blank solution and mixed well.
Transfer of 2.0 mL, by means of a volumetric pipette, of stock reference solution 1 into a 20 mL volumetric flask. Diluted to volume with blank solution and homogenized.
This sample preparation was setup for lyophilized products DP-5P and DP-7P in an initially sealed container. Before opening and dissolving the drug product, the vials were equilibrated at room temperature for at least 1 hour. The content of the vial was dissolved with 0.8 mL of diluent B, and stirred for 20 min, using a magnetic stirrer. 3.2 mL of diluent A were added. The solution was stirred well for 20 min, using a magnetic stirrer. After dissolving the content of the vial, the sample vial was kept on the lab bench for 30 minutes. The solution was stirred briefly and transferred into an HPLC vial.
• Column: Advance Bio Peptide Map (2.7 μm, 250 x 2.1 mm) • Sample matrix 0.05%v/v TFA in ACN : water (1:4 v/v) • Sample concentration 100 μg/mL net peptide (of each drug substance), duplicate • Injection volume: 10 μL • Column temperature: 40° C. • Sample temperature: 5° C. • Detection: UV (λ=220 nm) • Flow rate: 0.2 mL/min • Run time: 65 min • Purge solvent: 80/20 (v/v) water/ACN • Needle wash: 0.05% (v/v) TFA in 80/20 water/ACN (v/v) (20 s) • Seal wash: 90/10 (v/v) water/MeOH • Elution mode: Gradient elution • Eluent A: 0.1%v/v TFA in water • Eluent B: 0.1%v/v TFA in ACN/IPA (70:30 v/v)
The RRF was determined for all 12 peptides, enabling the quantification of each peptide against a reserpine as shown above. For the determination, the absorbance of each peptide in a solution comprising said peptide at a known concentration, and of a reference standard solution comprising reserpine at a known concentration, were measured at 220 nm. […]

Q: With DKCLKFYSKISEYRHYCYSLYGTTL (Peptide 1) as the sequence, how does the “Assay (mg/vial)” value ([1]; DP-5P batch, T0M) read?
A: 0.4047 mg/vial

Q: What about the “Label claim (% target 0.40 mg/vial)” value ([1]; DP-5P batch, T0M) of the same sequence?
A: 101%

Q: What about the “Assay (mg/vial)” value ([1]; DP-5P batch, T48M) of the same sequence?
A: 0.4107 mg/vial

Q: What about the “Label claim (% target 0.40 mg/vial)” value ([1]; DP-5P batch, T48M) of the same sequence?
A: 103%

Q: What about the “Assay (mg/vial)” value ([1]; DP-5P batch, T54M) of the same sequence?
A: 0.4088 mg/vial

Q: What about the “Label claim (% target 0.40 mg/vial)” value ([1]; DP-5P batch, T54M) of the same sequence?
A: 102%

Q: What about the “Assay (mg/vial)” value ([1]; DP-5P batch, T60M) of the same sequence?
A: 0.4082 mg/vial

Q: And the “Label claim (% target 0.40 mg/vial)” value ([1]; DP-5P batch, T60M)?
A: 102%

Q: And the “Assay (mg/vial)” value ([2]; DP-5P batch, T48M)?
A: 0.3910 mg/vial

Q: And the “Label claim (% target 0.40 mg/vial)” value ([2]; DP-5P batch, T48M)?
A: 98%

Q: And the “Assay (mg/vial)” value ([2]; DP-5P batch, T54M)?
A: 0.3932 mg/vial

Q: And the “Label claim (% target 0.40 mg/vial)” value ([2]; DP-5P batch, T54M)?
A: 98%

Q: And the “Assay (mg/vial)” value ([2]; DP-5P batch, T60M)?
A: 0.3701 mg/vial

Q: And the “Label claim (% target 0.40 mg/vial)” value ([2]; DP-5P batch, T60M)?
A: 93%

Q: For “DKKQRFHNIRGRWTGRCMSCCRSSRTRRETQL (Peptide 6)”, which “Assay (mg/vial)” value ([1]; DP-7P batch, T0M) is on record?
A: 0.4315 mg/vial

Q: And the “Label claim (% target 0.40 mg/vial)” value ([1]; DP-7P batch, T0M)?
A: 108%

Q: And the “Assay (mg/vial)” value ([1]; DP-7P batch, T48M)?
A: 0.4390 mg/vial

Q: What about the “Label claim (% target 0.40 mg/vial)” value ([1]; DP-7P batch, T48M) of the same sequence?
A: 110%

Q: What about the “Assay (mg/vial)” value ([1]; DP-7P batch, T54M) of the same sequence?
A: 0.4280 mg/vial

Q: What about the “Label claim (% target 0.40 mg/vial)” value ([1]; DP-7P batch, T54M) of the same sequence?
A: 107%

Q: And the “Assay (mg/vial)” value ([1]; DP-7P batch, T60M)?
A: 0.4286 mg/vial

Q: What about the “Label claim (% target 0.40 mg/vial)” value ([1]; DP-7P batch, T60M) of the same sequence?
A: 107%

Q: What about the “Assay (mg/vial)” value ([2]; DP-7P batch, T48M) of the same sequence?
A: 0.4100 mg/vial

Q: What about the “Label claim (% target 0.40 mg/vial)” value ([2]; DP-7P batch, T48M) of the same sequence?
A: 103%

Q: What about the “Assay (mg/vial)” value ([2]; DP-7P batch, T54M) of the same sequence?
A: 0.4033 mg/vial

Q: What about the “Label claim (% target 0.40 mg/vial)” value ([2]; DP-7P batch, T54M) of the same sequence?
A: 101%

Q: What about the “Assay (mg/vial)” value ([2]; DP-7P batch, T60M) of the same sequence?
A: 0.4010 mg/vial

Q: What about the “Label claim (% target 0.40 mg/vial)” value ([2]; DP-7P batch, T60M) of the same sequence?
A: 100%

Q: What does the source list for “MHGDTPTLHEYMLDLQPETTDLYCYEQLNDSSEEE [Peptide 3]”?
A: Assay (mg/vial) ([1]; DP-5P batch, T0M): 0.3942 mg/vial; Label claim (% target 0.40 mg/vial) ([1]; DP-5P batch, T0M): 99%; Assay (mg/vial) ([1]; DP-5P batch, T48M): 0.4311 mg/vial; Label claim (% target 0.40 mg/vial) ([1]; DP-5P batch, T48M): 108%; Assay (mg/vial) ([1]; DP-5P batch, T54M): 0.4194 mg/vial; Label claim (% target 0.40 mg/vial) ([1]; DP-5P batch, T54M): 105%; Assay (mg/vial) ([1]; DP-5P batch, T60M): 0.4170 mg/vial; Label claim (% target 0.40 mg/vial) ([1]; DP-5P batch, T60M): 104%; Assay (mg/vial) ([2]; DP-5P batch, T48M): 0.3798 mg/vial; Label claim (% target 0.40 mg/vial) ([2]; DP-5P batch, T48M): 95%; Assay (mg/vial) ([2]; DP-5P batch, T54M): 0.3789 mg/vial; Label claim (% target 0.40 mg/vial) ([2]; DP-5P batch, T54M): 95%; Assay (mg/vial) ([2]; DP-5P batch, T60M): 0.3883 mg/vial; Label claim (% target 0.40 mg/vial) ([2]; DP-5P batch, T60M): 97%

Q: Which “Assay (mg/vial)” value ([1]; DP-5P batch, T0M) does the source give for “TLRLCVQSTHVDIRTLEDLLMGTLGIVCPICSQKP (Peptide 5)” here?
A: 0.3976 mg/vial

Q: What about the “Label claim (% target 0.40 mg/vial)” value ([1]; DP-5P batch, T0M) of the same sequence?
A: 99%

Q: And the “Assay (mg/vial)” value ([1]; DP-5P batch, T48M)?
A: 0.4107 mg/vial

Q: What about the “Label claim (% target 0.40 mg/vial)” value ([1]; DP-5P batch, T48M) of the same sequence?
A: 103%

Q: And the “Assay (mg/vial)” value ([1]; DP-5P batch, T54M)?
A: 0.3948 mg/vial

Q: What about the “Label claim (% target 0.40 mg/vial)” value ([1]; DP-5P batch, T54M) of the same sequence?
A: 99%

Q: What about the “Assay (mg/vial)” value ([1]; DP-5P batch, T60M) of the same sequence?
A: 0.4011 mg/vial

Q: And the “Label claim (% target 0.40 mg/vial)” value ([1]; DP-5P batch, T60M)?
A: 100%

Q: And the “Assay (mg/vial)” value ([2]; DP-5P batch, T48M)?
A: 0.4028 mg/vial

Q: And the “Label claim (% target 0.40 mg/vial)” value ([2]; DP-5P batch, T48M)?
A: 101%

Q: What about the “Assay (mg/vial)” value ([2]; DP-5P batch, T54M) of the same sequence?
A: 0.4021 mg/vial

Q: And the “Label claim (% target 0.40 mg/vial)” value ([2]; DP-5P batch, T54M)?
A: 101%

Q: What about the “Assay (mg/vial)” value ([2]; DP-5P batch, T60M) of the same sequence?
A: 0.3968 mg/vial

Q: What about the “Label claim (% target 0.40 mg/vial)” value ([2]; DP-5P batch, T60M) of the same sequence?
A: 99%

— patent US20230296569A1, “Substance quantification in complex mixtures” (ISA Pharmaceuticals B.V., priority 2021, published 2023)
